Laboratory results reported in patent publication US20260242478A1 (published 2026).
Where no end group is shown, it is not given here.

How the values were obtained:
[1] = molecular target: T1, Anti-CD28 Fab (SEQ ID NOs: 696, 697); experiment: phage ELISA on plate-bound anti-CD28 Fab, wells pre-incubated with CD28 antigen as competitor
T1 construct: Biotinylated and captured on neutravidin coated plates in the phage ELISA
T1 sequence (VH, as listed by the source, chain 1 of 2): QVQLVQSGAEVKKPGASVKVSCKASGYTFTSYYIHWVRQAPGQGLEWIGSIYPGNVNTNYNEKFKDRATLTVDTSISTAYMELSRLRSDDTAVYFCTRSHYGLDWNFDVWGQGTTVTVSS
T1 sequence (VL, as listed by the source, chain 2 of 2): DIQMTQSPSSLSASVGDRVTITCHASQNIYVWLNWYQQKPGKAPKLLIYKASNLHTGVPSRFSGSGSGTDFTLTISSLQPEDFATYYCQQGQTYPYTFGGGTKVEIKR
Method: (§1) After panning, phage infected bacteria were plated out and colonies picked into 96 well blocks. Clonal phage was then amplified and separated from bacterial cells via centrifugation.
(§2) Clonal phage were harvested as crude supematants and screened via standard ELISAs. […] Prior to the addition of clonal phage, wells were incubated with blocking buffer and CD28 antigen or blocking buffer alone. Without washing or aspirating, clonal phage supematants were then added to the wells and incubated for a short time. Wells were then washed followed by detection of bound phage using a horse radish conjugated anti-M13 antibody. Clonal phage of interest were then sent for sequence analysis.

[2] = molecular target: T1, Anti-CD28 Fab (SEQ ID NOs: 696, 697); experiment: phage ELISA; biotinylated anti-CD28 Fab on neutravidin plate, clonal phage supernatant, anti-M13 HRP detection;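 also: crude supernatants of single phage clones picked after panning were screened for binding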
[3] = molecular target: T2, Anti-CD28 Fab (SEQ ID NOs: 696, 697); experiment: phage binding ELISA; biotinylated anti-CD28 Fab on neutravidin plate, bound phage detected with anti-M13-HRP
T2 construct: In the phage ELISA the Fab was biotinylated and captured on neutravidin coated plates
T2 sequence (VH, as listed by the source, chain 1 of 2): as the sequence (VH, as listed by the source, chain 1 of 2) above
T2 sequence (VL, as listed by the source, chain 2 of 2): as the sequence (VL, as listed by the source, chain 2 of 2) above
Method: as §1, §2

[4] = molecular target: T2, Anti-CD28 Fab (SEQ ID NOs: 696, 697); experiment: phage binding ELISA on captured anti-CD28 Fab; competitor: CD28 antigen pre-incubated in the wells
Method: as §1, §2

[5] = molecular target: T3, Anti-CD28 Fab (SEQ ID NOs: 696, 697); experiment: phage binding ELISA on anti-CD28 Fab plate pre-incubated with CD28 antigen as competitor; anti-M13 HRP detection
T3 construct: Biotinylated and captured on neutravidin coated plates in the phage ELISA
T3 sequence (VH, as listed by the source, chain 1 of 2): as the sequence (VH, as listed by the source, chain 1 of 2) above
T3 sequence (VL, as listed by the source, chain 2 of 2): as the sequence (VL, as listed by the source, chain 2 of 2) above
Method: as §1, §2

[6] = molecular target: T3, Anti-CD28 Fab (SEQ ID NOs: 696, 697); experiment: phage binding ELISA; biotinylated anti-CD28 Fab on neutravidin plate, clonal phage supernatant, anti-M13 HRP detection
[7] = molecular target: Anti-CD28 Fab (SEQ ID NOs: 696, 697); experiment: phage binding ELISA; captured anti-CD28 Fab pre-incubated with CD28 antigen as competitor, anti-M13 HRP detection
Target sequence in this assay (VH, as listed by the source, chain 1 of 2): as the sequence (VH, as listed by the source, chain 1 of 2) above
Target sequence in this assay (VL, as listed by the source, chain 2 of 2): as the sequence (VL, as listed by the source, chain 2 of 2) above

[8] = molecular target: Anti-CD28 Fab (SEQ ID NOs: 696, 697); experiment: phage binding ELISA; biotinylated anti-CD28 Fab on neutravidin plate, clonal phage supernatant, anti-M13 HRP detection
Target sequence in this assay (VH, as listed by the source, chain 1 of 2): as the sequence (VH, as listed by the source, chain 1 of 2) above
Target sequence in this assay (VL, as listed by the source, chain 2 of 2): as the sequence (VL, as listed by the source, chain 2 of 2) above

Binder | Anti-CD28 Fab signal in the presence of CD28 (phage binding ELISA) [1] | Anti-CD28 Fab signal (phage binding ELISA) [2] | Anti-CD28 Fab signal (phage binding ELISA) [3] | Anti-CD28 Fab signal in the presence of CD28 (phage binding ELISA) [4] | other results
YCEGHADIYMQKCL (Clonal phage of the Peptide-87 library) [Phage-675] | 0.07 | 2.06 |  |  | 
YCEGHAIQYMSKCL [Phage-689] |  |  | 2.04 | 0.06 | 
YCSGHLPEYMEKCL (peptide, not shown: large carriers, Clonal phage supernatant of the Peptide-87 library) [Phage-660] |  |  |  |  | Anti-CD28 Fab signal in the presence of CD28 (phage binding ELISA) [5]: 0.09; Anti-CD28 Fab signal (phage binding ELISA) [6]: 2.09
YCDGHVGEYMQKCL [Phage-683] |  |  | 2.05 | 0.08 | 
YCEGHAPQHMDKCL [Phage-690] |  |  | 2.04 | 0.08 | 
YCQGHMPEYMDKCL (Clonal phage of the Peptide-87 library) [Phage-681] | 0.07 | 2.05 |  |  | 
YCDGHAPQYMGKCL (Clonal phage of the Peptide-87 library) [Phage-677] | 0.08 | 2.06 |  |  | 
YCEGHSPEYMSHCF (peptide, not shown: large carriers, Clonal phage supernatant of the Peptide-87 library) [Phage-666] |  |  |  |  | Anti-CD28 Fab signal in the presence of CD28 (phage binding ELISA) [5]: 0.09; Anti-CD28 Fab signal (phage binding ELISA) [6]: 2.08
YCDGHAPEYVMKCL (Clonal phage of the Peptide-87 library) [Phage-682] | 0.1 | 2.05 |  |  | 
YCDGHASEYMMKCL [Phage-687] |  |  | 2.05 | 0.06 | 
YCAGHIEEYMWKCL (Clonal phage of the Peptide-87 library) [Phage-680] | 0.06 | 2.05 |  |  | 
YCMGHLPQYMEKCL (peptide, not shown: large carriers, Clonal phage supernatant of the Peptide-87 library) [Phage-662] |  |  |  |  | Anti-CD28 Fab signal in the presence of CD28 (phage binding ELISA) [5]: 0.08; Anti-CD28 Fab signal (phage binding ELISA) [6]: 2.08
YCLGHAPQYIQKCL [Phage-693] |  |  | 2.04 | 0.14 | 
YCEGHAPQYIAKCL (cysteine pairing not given here; also: displayed on phage by fusion to pIII, pIII and linker sequence not given here) [Phage-696] |  |  |  |  | Anti-CD28 Fab signal in the presence of CD28 [7]: 0.08; Anti-CD28 Fab (SEQ ID NOs: 696, 697) signal [8]: 2.03
YCEGHAPEHMAKCL (peptide, not shown: large carriers, Clonal phage supernatant of the Peptide-87 library) [Phage-664] |  |  |  |  | Anti-CD28 Fab signal in the presence of CD28 (phage binding ELISA) [5]: 0.1; Anti-CD28 Fab signal (phage binding ELISA) [6]: 2.08
YCEGHSPQYMSKCL [Phage-691] |  |  | 2.04 | 0.07 | 
YCDGHELRYMAKCL (Clonal phage of the Peptide-87 library) [Phage-671] | 0.07 | 2.07 |  |  | 
YCDGHLPEYQMKCL [Phage-686] |  |  | 2.05 | 0.08 | 
YCEGHSDEYMLKCL (Clonal phage of the Peptide-87 library) [Phage-673] | 0.07 | 2.06 |  |  | 

Binder | Anti-CD28 Fab signal in the presence of CD28 (phage binding ELISA) [1] | Anti-CD28 Fab signal (phage binding ELISA) [2] | Anti-CD28 Fab signal (phage binding ELISA) [3] | Anti-CD28 Fab signal in the presence of CD28 (phage binding ELISA) [4] | other results
YCEGHAPEYMYKCL [Phage-685] |  |  | 2.05 | 0.07 | 
YCDGHAQEFMSKCL (peptide, not shown: large carriers, Clonal phage supernatant of the Peptide-87 library) [Phage-668] |  |  |  |  | Anti-CD28 Fab signal in the presence of CD28 (phage binding ELISA) [5]: 0.12; Anti-CD28 Fab signal (phage binding ELISA) [6]: 2.07
YCSGHLPEYMSKCL [Phage-695] |  |  | 2.03 | 0.09 | 
YCDGHFREYMQKCL [Phage-692] |  |  | 2.04 | 0.06 | 
YCEGHSMQHMAKCL (peptide, not shown: large carriers, Clonal phage supernatant of the Peptide-87 library) [Phage-667] |  |  |  |  | Anti-CD28 Fab signal in the presence of CD28 (phage binding ELISA) [5]: 0.08; Anti-CD28 Fab signal (phage binding ELISA) [6]: 2.07
YCDGHAEQYMEKCL (peptide, not shown: large carriers, Clonal phage supernatant of the Peptide-87 library) [Phage-665] |  |  |  |  | Anti-CD28 Fab signal in the presence of CD28 (phage binding ELISA) [5]: 0.07; Anti-CD28 Fab signal (phage binding ELISA) [6]: 2.08
YCEGHAPEYMMKCI (Clonal phage of the Peptide-87 library) [Phage-674] | 0.06 | 2.06 |  |  | 
YCDGHSPMYIGKCL (cysteine pairing not given here; also: displayed on phage by fusion to pIII, pIII and linker sequence not given here) [Phage-697] |  |  |  |  | Anti-CD28 Fab signal in the presence of CD28 [7]: 0.07; Anti-CD28 Fab (SEQ ID NOs: 696, 697) signal [8]: 2.03
YCDGHAIEYMQKCL (Clonal phage of the Peptide-87 library) [Phage-679] | 0.07 | 2.05 |  |  | 
YCAGHLEIYMQKCL (peptide, not shown: large carriers, Clonal phage supernatant of the Peptide-87 library) [Phage-661] |  |  |  |  | Anti-CD28 Fab signal in the presence of CD28 (phage binding ELISA) [5]: 0.08; Anti-CD28 Fab signal (phage binding ELISA) [6]: 2.09
YCEGHSAEYMNKCL (Clonal phage of the Peptide-87 library) [Phage-676] | 0.07 | 2.06 |  |  | 
YCDGHLIEYMEKCL [Phage-688] |  |  | 2.04 | 0.06 | 
YCDGHLPAYMAKCL (Clonal phage of the Peptide-87 library) [Phage-672] | 0.12 | 2.06 |  |  | 
YCAGHLPEYIDKCL (peptide, not shown: large carriers, Clonal phage supernatant of the Peptide-87 library) [Phage-669] |  |  |  |  | Anti-CD28 Fab signal in the presence of CD28 (phage binding ELISA) [5]: 0.08; Anti-CD28 Fab signal (phage binding ELISA) [6]: 2.07
YCDGHSAQYMHKCL [Phage-684] |  |  | 2.05 | 0.06 | 
YCEGHLPIYMDKCL (Clonal phage of the Peptide-87 library) [Phage-678] | 0.08 | 2.06 |  |  | 
YCEGHSAEYMWKCL (peptide, not shown: large carriers, Clonal phage supernatant of the Peptide-87 library) [Phage-663] |  |  |  |  | Anti-CD28 Fab signal in the presence of CD28 (phage binding ELISA) [5]: 0.09; Anti-CD28 Fab signal (phage binding ELISA) [6]: 2.08
YCEGHAPQYIQKCL (Clonal phage of the Peptide-87 library) [Phage-670] | 0.07 | 2.07 |  |  | 
YCDGHSSEYMWKCL [Phage-694] |  |  | 2.03 | 0.06 | 
